Data reported in patent publication US20130046081A1 (SHANGHAI BIOMABS PHARMACEUTICALS, published 2013).

Target: T1, Recombinant Human VEGF165 Protein (human, UniProt P15692-4 27-191)
T1 construct: Bought protein (R&D)
Test: SPR (Biacore T100), VEGF165 amine-coupled to the chip, antibody in solution
Procedure: Affinity constant of VEGF antibody was detected using Biacore T100 system (Biacore AB, Uppsala, Sweden). VEGF165 (R&D) was covalently linked to CMS biological sensor chips (Biacore) by amino-coupling. […] After each examination, they were washed with 5 μl of 50 mM hydrochloric acid aqueous solution at a flow rate of 3 μl/min so as to wash away the residual antibodies from the immobilized ligands. The binding curves were subjected to nonlinear regression analysis using BIAevalution software (T100 evalution version 2.0, Biacore).

T1 sequence (P15692 other isoform, or with tags, fused parts or gaps limits assumed): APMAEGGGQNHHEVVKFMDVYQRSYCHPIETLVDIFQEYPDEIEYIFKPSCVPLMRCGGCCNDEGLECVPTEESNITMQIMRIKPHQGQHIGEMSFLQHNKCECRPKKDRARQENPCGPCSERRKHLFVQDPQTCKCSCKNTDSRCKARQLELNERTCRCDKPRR

Kd: 0.86 nM | koff: 7.1e-05 s⁻¹ | kon: 82400 M⁻¹ s⁻¹
B1: fully human anti-VEGF antibody 11A7 (antibody, human IgG1, kappa, V domains shown)
VH: QVQLVQSGAEVKKPGASVKVSCKASGYTFTSYDINWVRQATGQGLEWMGWMNPNSGNTGYAQKFQGRVTMTRNTSISTAYMELSSLRSEDTAVYYCARGGYSSSWYYWYFDLWGRGTLVTVSS
VL: DIQMTQSPSSLSASVGDRVTITCRASQGIRNDLGWYQQKPGKAPKRLIYAASSLQSGVPSRFSGSGSGTEFTLTISSLQPEDFATYYCLQHNSYPPVYTFGQGTKLEIKR
notes: The genes carried a signal peptide at the 5' end; also called fully human antibody 11A7
